Test results taken from patent EP3597215A1 (dated 2020).

Biological target: prostate-specific membrane antigen (PSMA) (UniProt Q04609 1-750, limits assumed)
Assay: cell-based or functional assay

Chain of prostate-specific membrane antigen (PSMA) (Q04609 whole entry): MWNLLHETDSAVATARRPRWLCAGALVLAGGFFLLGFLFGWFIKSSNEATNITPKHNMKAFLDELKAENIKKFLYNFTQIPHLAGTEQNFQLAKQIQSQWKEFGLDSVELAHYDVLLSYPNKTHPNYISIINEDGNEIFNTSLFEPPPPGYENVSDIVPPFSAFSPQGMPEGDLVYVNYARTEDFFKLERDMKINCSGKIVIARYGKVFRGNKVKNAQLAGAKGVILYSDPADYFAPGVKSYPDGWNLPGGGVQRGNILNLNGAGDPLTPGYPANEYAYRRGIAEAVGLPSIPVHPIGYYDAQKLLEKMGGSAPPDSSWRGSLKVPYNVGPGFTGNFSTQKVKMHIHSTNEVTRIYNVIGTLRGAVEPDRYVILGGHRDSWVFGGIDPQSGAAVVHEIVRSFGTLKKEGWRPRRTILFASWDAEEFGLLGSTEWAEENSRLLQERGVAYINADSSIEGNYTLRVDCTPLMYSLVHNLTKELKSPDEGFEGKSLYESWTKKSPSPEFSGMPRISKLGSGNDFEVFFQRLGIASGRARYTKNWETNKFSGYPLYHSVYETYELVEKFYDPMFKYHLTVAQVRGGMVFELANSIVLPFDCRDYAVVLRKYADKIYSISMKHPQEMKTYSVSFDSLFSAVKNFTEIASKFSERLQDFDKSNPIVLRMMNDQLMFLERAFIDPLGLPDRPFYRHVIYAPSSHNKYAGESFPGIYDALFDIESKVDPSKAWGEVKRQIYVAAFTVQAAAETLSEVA

B1: P28BB (anti-PSMA chimeric costimulatory receptor) (other)
chain: EVQLQQSGPELVKPGTSVRISCKTSGYTFTEYTIHWVKQSHGKSLEWIGNINPNNGGTTYNQKFEDKATLTVDKSSSTAYMELRSLTSEDSAVYYCAAGWNFDYWGQGTTVTVSSGGGGSGGGGSGGGGSDIVMTQSHKFMSTSVGDRVSIICKASQDVGTAVDWYQQKPGQSPKLLIYWASTRHTGVPDRFTGSGSGTDFTLTITNVQSEDLADYFCQQYNSYPLTFGAGTMLDLKRAAAIEVMYPPPYLDNEKSNGTIIHVKGKHLCPSPLFPGPSKPFWVLVVVGGVLACYSLLVTVAFIIFWVRSKRSRLLHSDYMNMTPRRPGPTRKHYQPYAPPRDFAAYRSRFSVVKRGRKKLLYIFKQPFMRPVQTTQEEDGCSCRFPEEEEGGCE
- long-term T cell proliferation (expansion over 31 days) of 19z1+P28BB T cells on AAPCs expressing CD19 and PSMA: 58 fold
